Results from US20230002480A1.

Tests used:
Assay in all cases: cell-based or functional assay
[1] = target: HIV-1 Env of pseudovirus T251-18 (HIV-1)
[2] = target: HIV-1 Env of pseudovirus Ce1176_A3 (HIV-1)
[3] = target: HIV-1 Env of pseudovirus Ce1086_B2 (HIV-1)
[4] = target: HIV-1 Env of pseudovirus 3301.v1.c24 (HIV-1)
[5] = target: HIV-1 Env of pseudovirus 231966.c02 (HIV-1)
[6] = target: HIV-1 Env of pseudovirus 1056_10_TA11_1826 (HIV-1)
[7] = target: HIV-1 Env of pseudovirus Q842.d12 (HIV-1)
[8] = target: HIV-1 Env of pseudovirus R2184.c04 (HIV-1)
[9] = target: HIV-1 Env of pseudovirus ZM233M.PB6 (HIV-1)
[10] = target: HIV-1 Env of pseudovirus 249M B10 (HIV-1)
[11] = target: HIV-1 Env of pseudovirus TRJO4551.58 (HIV-1)
[12] = target: HIV-1 Env of pseudovirus ZM135M.PL10a (HIV-1)
[13] = target: HIV-1 Env of pseudovirus CNE21 (HIV-1)
[14] = target: HIV-1 Env of pseudovirus 6811.v7.c18 (HIV-1)
[15] = target: HIV-1 Env of pseudovirus AC10.0.29 (HIV-1)
[16] = target: HIV-1 Env of pseudovirus ZM53M.PB12 (HIV-1)
[17] = target: HIV-1 Env of pseudovirus 7030102001E5(Rev-) (HIV-1)
[18] = target: HIV-1 Env of pseudovirus SC05_8C11_2344 (HIV-1)
[19] = target: HIV-1 Env of pseudovirus 1054_07_TC4_1499 (HIV-1)
[20] = target: HIV-1 Env of pseudovirus CNE19 (HIV-1)
[21] = target: HIV-1 Env of pseudovirus 89-F1_2_25 (HIV-1)
[22] = target: HIV-1 Env of pseudovirus Ce704809221_1B3 (HIV-1)
[23] = target: HIV-1 Env of pseudovirus CNE52 (HIV-1)
[24] = target: HIV-1 Env of pseudovirus Ce703010054_2A2 (HIV-1)
[25] = target: HIV-1 Env of pseudovirus 6545.v4.c1 (HIV-1)
[26] = target: HIV-1 Env of pseudovirus CNE20 (HIV-1)
[27] = target: HIV-1 Env of pseudovirus X1254_c3 (HIV-1)
[28] = target: HIV-1 Env of pseudovirus 1006_11_C3_1601 (HIV-1)
[29] = target: HIV-1 Env of pseudovirus BJOX028000.10.3 (HIV-1)
[30] = target: HIV-1 Env of pseudovirus T250-4 (HIV-1)
[31] = target: HIV-1 Env of pseudovirus 6041.v3.c23 (HIV-1)
[32] = target: HIV-1 Env of pseudovirus 231965.c01 (HIV-1)
[33] = target: HIV-1 Env of pseudovirus CNE17 (HIV-1)
[34] = target: HIV-1 Env of pseudovirus 1012_11_TC21_3257 (HIV-1)
[35] = target: HIV-1 Env of pseudovirus T278-50 (HIV-1)
[36] = target: HIV-1 Env of pseudovirus P0402_c2_11 (HIV-1)
[37] = target: HIV-1 Env of pseudovirus Du172.17 (HIV-1)

PGT121 (antibody)
IC50 [1]: 29 µg/mL
IC80 [1]: > 50 µg/mL
IC50 [2]: 0.013 µg/mL
IC80 [2]: 0.035 µg/mL
IC50 [3]: < 0.001 µg/mL
IC80 [3]: < 0.001 µg/mL
IC50 [4]: 0.008 µg/mL
IC80 [4]: 0.019 µg/mL
IC50 [5]: > 50 µg/mL
IC80 [5]: > 50 µg/mL
IC50 [6]: 0.004 µg/mL
IC80 [6]: 0.081 µg/mL
IC50 [7]: 0.005 µg/mL
IC50 [8]: > 50 µg/mL
IC80 [8]: > 50 µg/mL
IC50 [9]: 3.69 µg/mL
IC50 [10]: > 50 µg/mL
IC80 [10]: > 50 µg/mL
IC50 [11]: 1.31 µg/mL
IC80 [11]: 37.9 µg/mL
IC50 [12]: 0.716 µg/mL
IC80 [12]: 5.25 µg/mL
IC50 [13]: 0.007 µg/mL
IC80 [13]: 0.035 µg/mL
IC50 [14]: < 0.001 µg/mL
IC80 [14]: 0.001 µg/mL
IC50 [15]: 0.024 µg/mL
IC80 [15]: 0.073 µg/mL
IC50 [16]: < 0.001 µg/mL
IC80 [16]: 0.004 µg/mL
IC50 [17]: 0.009 µg/mL
IC80 [17]: 0.027 µg/mL
IC50 [18]: 0.019 µg/mL
IC80 [18]: 0.071 µg/mL
IC50 [19]: 0.064 µg/mL
IC80 [19]: 0.304 µg/mL
IC50 [20]: 0.008 µg/mL
IC80 [20]: 0.105 µg/mL
IC50 [21]: > 50 µg/mL
IC80 [21]: > 50 µg/mL
IC50 [22]: 0.025 µg/mL
IC80 [22]: 0.126 µg/mL
IC50 [23]: 2.04 µg/mL
IC80 [23]: 18.9 µg/mL
IC50 [24]: > 50 µg/mL
IC80 [24]: > 50 µg/mL
IC50 [25]: > 50 µg/mL
IC80 [25]: > 50 µg/mL
IC50 [26]: < 0.001 µg/mL
IC80 [26]: 0.002 µg/mL
IC50 [27]: 0.014 µg/mL
IC80 [27]: 0.08 µg/mL
IC50 [28]: 0.002 µg/mL
IC80 [28]: 0.007 µg/mL
IC50 [29]: > 50 µg/mL
IC80 [29]: > 50 µg/mL
IC50 [30]: < 0.001 µg/mL
IC80 [30]: 0.005 µg/mL
IC50 [31]: > 50 µg/mL
IC80 [31]: > 50 µg/mL
IC50 [32]: > 50 µg/mL
IC80 [32]: > 50 µg/mL
IC50 [33]: 7.6 µg/mL
IC80 [33]: > 50 µg/mL
IC50 [34]: 0.003 µg/mL
IC80 [34]: 0.017 µg/mL
IC50 [35]: > 50 µg/mL
IC80 [35]: > 50 µg/mL
IC50 [36]: 0.005 µg/mL
IC50 [37]: 0.033 µg/mL
IC80 [37]: 0.257 µg/mL

8ANC195 (antibody)
neutralization IC50 [2]: 4.45 µg/mL
neutralization IC80 [2]: 35.2 µg/mL
neutralization IC50 [3]: 4.42 µg/mL
neutralization IC80 [3]: 19.1 µg/mL
IC50, titer in TZM.bl cells [4]: > 50 µg/mL
IC80, titer in TZM.bl cells [4]: > 50 µg/mL
IC50, titer in TZM.bl cells [5]: 0.54 µg/mL
IC80, titer in TZM.bl cells [5]: 2.98 µg/mL
neutralization IC50 [6]: > 50 µg/mL
neutralization IC80 [6]: > 50 µg/mL
neutralization IC50 [7]: > 30 µg/mL
neutralization IC80 [7]: > 30 µg/mL
IC50, titer in TZM.bl cells [8]: 0.09 µg/mL
IC80, titer in TZM.bl cells [8]: 13 µg/mL
neutralization IC50 [9]: 7.39 µg/mL
neutralization IC80 [9]: 43.5 µg/mL
neutralization IC50 [10]: > 50 µg/mL
neutralization IC80 [10]: > 50 µg/mL
neutralization IC50 [11]: 0.19 µg/mL
neutralization IC80 [11]: 1.17 µg/mL
neutralization IC50 [12]: > 50 µg/mL
neutralization IC80 [12]: > 50 µg/mL
neutralization IC50 [13]: 0.27 µg/mL
neutralization IC80 [13]: 1.52 µg/mL
IC50, titer in TZM.bl cells [14]: 5.34 µg/mL
IC80, titer in TZM.bl cells [14]: 27.6 µg/mL
neutralization IC50 [15]: 0.88 µg/mL
neutralization IC80 [15]: 7 µg/mL
neutralization IC50 [16]: > 30 µg/mL
neutralization IC80 [16]: > 30 µg/mL
neutralization IC50 [17]: 0.86 µg/mL
neutralization IC80 [17]: 8.32 µg/mL
neutralization IC50 [18]: 0.47 µg/mL
neutralization IC80 [18]: 3.06 µg/mL
neutralization IC50 [19]: 1.02 µg/mL
neutralization IC80 [19]: 6.75 µg/mL
neutralization IC50 [20]: 0.29 µg/mL
neutralization IC80 [20]: 1.73 µg/mL
IC50, titer in TZM.bl cells [21]: > 50 µg/mL
IC80, titer in TZM.bl cells [21]: > 50 µg/mL
neutralization IC50 [22]: 0.48 µg/mL
neutralization IC80 [22]: 3.52 µg/mL
neutralization IC50 [23]: 5.59 µg/mL
neutralization IC80 [23]: 43.1 µg/mL
neutralization IC50 [24]: 13.6 µg/mL
neutralization IC80 [24]: > 50 µg/mL
IC50, titer in TZM.bl cells [25]: 26.9 µg/mL
IC80, titer in TZM.bl cells [25]: > 50 µg/mL
neutralization IC50 [26]: 0.5 µg/mL
neutralization IC80 [26]: 3.19 µg/mL
IC50, titer in TZM.bl cells [27]: 6.95 µg/mL
IC80, titer in TZM.bl cells [27]: 6.95 µg/mL
neutralization IC50 [28]: 0.43 µg/mL
neutralization IC80 [28]: 1.98 µg/mL
IC50, titer in TZM.bl cells [29]: 0.45 µg/mL
IC80, titer in TZM.bl cells [29]: 2.83 µg/mL
IC50, titer in TZM.bl cells [30]: > 50 µg/mL
IC80, titer in TZM.bl cells [30]: > 50 µg/mL
IC50, titer in TZM.bl cells [31]: > 50 µg/mL
IC80, titer in TZM.bl cells [31]: > 50 µg/mL
IC50, titer in TZM.bl cells [32]: 2.36 µg/mL
IC80, titer in TZM.bl cells [32]: 2.36 µg/mL
neutralization IC50 [33]: 2.59 µg/mL
neutralization IC80 [33]: 11.1 µg/mL
neutralization IC50 [34]: > 50 µg/mL
neutralization IC80 [34]: > 50 µg/mL
IC50, titer in TZM.bl cells [35]: > 50 µg/mL
IC80, titer in TZM.bl cells [35]: > 50 µg/mL
IC50, titer in TZM.bl cells [36]: 0.62 µg/mL
IC80, titer in TZM.bl cells [36]: 6.35 µg/mL
neutralization IC50 [37]: > 30 µg/mL
neutralization IC80 [37]: > 30 µg/mL
